PMC5114276
Each block holds one substance with its values, some of them ahead of it.

Experiments:
[1] = target: Cx36 mutant G276A, rat, full length, fluorescently tagged (rat) (UniProt O70610); experiment: FRET or BRET; acceptor bleach FRET on a confocal microscope, Neuro2a cells 48 h after transient co-transfection; read at gap junction plaques (GJP) or at vesicles; non-stimulated or with 2 mM [Ca2+]E and 2 μM ionomycin, 24 μM BAPTA-AM or 10 μM W-7; FRET distance calculated from the efficiency (Ro 5.09), threshold 10 nm
[2] = target: Cx36 mutant R278A, rat, full length, fluorescently tagged (rat) (UniProt O70610); experiment: as above
[3] = target: connexin36 (Cx36), rat, full length, fluorescently tagged (rat) (UniProt O70610); experiment: as above
[4] = target: connexin36 (Cx36), rat, full length, fluorescently tagged (rat) (UniProt O70610)

FRET distance (vesicles, non-stimulated) [1]: 8.16 nm
FRET distance (vesicles, stimulated with Ca2+ and ionomycin) [1]: 7.48 nm
FRET efficiency (vesicles, non-stimulated) [1]: 6.61%
FRET efficiency (vesicles, stimulated with Ca2+ and ionomycin) [1]: 9.74%
FRET distance (vesicles, non-stimulated) [2]: 9.33 nm
FRET distance (vesicles, stimulated with Ca2+ and ionomycin) [2]: 8.26 nm
FRET efficiency (vesicles, non-stimulated) [2]: 2.84%
FRET efficiency (vesicles, stimulated with Ca2+ and ionomycin) [2]: 6.54%
FRET distance (GJP, non-stimulated) [3]: 9.11 nm
FRET distance (GJP, stimulated with Ca2+ and ionomycin) [3]: 9.61 nm
FRET distance (vesicles, non-stimulated) [3]: 9.27 nm
FRET distance (vesicles, non-stimulated; panel of the alanine mutants) [3]: 9.15 nm
FRET distance (vesicles, stimulated with Ca2+ and ionomycin) [3]: 8.09 nm
FRET distance (vesicles, stimulated with Ca2+ and ionomycin; panel of the alanine mutants) [3]: 7.69 nm
FRET efficiency (GJP, 10 μM W-7) [3]: 2.7%
FRET efficiency (GJP, 24 μM BAPTA-AM) [3]: 2.8%
FRET efficiency (GJP, non-stimulated; FRET pair I Cx36–DsRed, CaM–ECFP) [3]: 3.23%
FRET efficiency (GJP, non-stimulated; FRET pair II Cx36–ECFP, CaM–DsRed) [3]: 3.35%
FRET efficiency (GJP, stimulated with Ca2+ and ionomycin) [3]: 2.8%
FRET efficiency (vesicles, non-stimulated; FRET pair I Cx36–DsRed, CaM–ECFP) [3]: 3.65%
FRET efficiency (vesicles, non-stimulated; FRET pair II Cx36–ECFP, CaM–DsRed) [3]: 3.09%
FRET efficiency (vesicles, stimulated with Ca2+ and ionomycin) [3]: 6.38%
FRET efficiency (vesicles, stimulated with Ca2+ and ionomycin; panel of the alanine mutants) [3]: 8.82%
ethidium bromide fluorescence recovery after photobleaching in pairs of Neuro2a cells expressing Cx36–ECFP (CaM of the cells), non-stimulated [4]: 5.82%
ethidium bromide fluorescence recovery after photobleaching in pairs of Neuro2a cells expressing Cx36–ECFP (CaM of the cells), stimulated with 2 mM [Ca2+]E and 2 μM ionomycin [4]: 47.5%
ethidium bromide fluorescence recovery after photobleaching in pairs of Neuro2a cells expressing Cx36–ECFP, CaM blocked with 10 μM W-7, non-stimulated [4]: 16.6%
ethidium bromide fluorescence recovery after photobleaching in pairs of Neuro2a cells expressing Cx36–ECFP, CaM blocked with 10 μM W-7, stimulated with 2 mM [Ca2+]E and 2 μM ionomycin [4]: 3.77%
Substance: calmodulin (CaM), rat, full length, fluorescently tagged (from UniProt P0DP29 1-149) (natural protein)

FRET distance (GJP, non-stimulated) [3]: 10.9 nm
FRET distance (GJP, stimulated with Ca2+ and ionomycin) [3]: 10.1 nm
FRET distance (vesicles, non-stimulated) [3]: 9.96 nm
FRET distance (vesicles, stimulated with Ca2+ and ionomycin) [3]: 10.8 nm
Substance: calcium insensitive mutant CaM_(E1234Q) (from UniProt P0DP29 1-149) (natural protein)
